From patent US20250122301A1 (IBIO, published 2025)

T1: CD25 on CD25+ cells (SUDHL-1, HEK IL-2 reporter cells, primary human regulatory T cells) (human, UniProt P01589 22-272)
T1 construct: whole, on cells; also called IL-2Ralpha
T1 sequence (looked up): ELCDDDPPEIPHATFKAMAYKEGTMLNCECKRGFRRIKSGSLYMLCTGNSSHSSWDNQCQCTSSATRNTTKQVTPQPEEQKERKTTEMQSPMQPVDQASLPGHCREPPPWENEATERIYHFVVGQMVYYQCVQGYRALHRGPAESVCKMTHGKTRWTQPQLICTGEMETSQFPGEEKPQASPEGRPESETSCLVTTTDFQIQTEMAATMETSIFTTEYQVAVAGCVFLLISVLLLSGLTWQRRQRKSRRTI


Target: T1, CD25 on CD25+ cells (SUDHL-1, HEK IL-2 …)
Assay: flow cytometry, dose response on CD25+ SUDHL-1 cells;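 note: antibody binding to cells read as median fluorescence intensity of an AF647 anti-human Fc secondary, DAPI+ dead cells excluded, 20 min on ice, 5-fold dilutions from 10 ug/mL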
Method: For each cell line, 100,000 cells were plated in a 96 well round bottom plate in cell buffer (PBS+2% HI FBS) and centrifuged. Antibody concentrations from 1-10 ug/mL were used to test the binding of each antibody. Cell were resuspended in 100 uL of antibodies/well and incubated for 20 minutes on ice. After incubation, cells were centrifuged at 300×g for 5 minutes at room temperature, and resuspended and washed with ice cold cell buffer. Cells were then stained with an anti-human Fc secondary antibody conjugated to AF647 (Biolegend) and incubated on ice for 20 min in the dark. Cells were centrifuged, washed and resuspended in cold cell buffer with DAPI and analyzed using flow cytometry (Cytoflex, Becton Dickinson). DAPI+ cell were excluded from analysis. The mean fluorescence intensity was calculated using the median (FlowJo, TreeStar).

Row | Binder | EC50 [µg/mL]
1 | D5 (human IgG1 reformatted) (antibody, V domains shown) VH: QVQLQQSGAELVRPGTSVKISCKASGYTFTNYWLGWVKQRPGHGLEWIGDIYPGGGYTNYNEKFKGKATLTADTSSSTAYMQLSSLTSEDSAVYFCARVTPASWGQGTSLTVSS VL: DIVMTQSQKFMSTSVGDRVSVTCKASQNVGTNVAWYQQKPGQSPKALIYSASYRYSGVPDRFTGSGSGTDFTLTISNVQSEDLAEYFCQQYNSYPYTFGGGTKLEMK | 0.603
2 | AH04524 (human IgG1 reformatted) (antibody, V domains shown, also called AH4524) VH: QIQLQQSGAELVRPGTSVKMSCKAAGYTFTNYWIGWVKQRPGHGLEWIGDIHPGGDYSNYNEKFKGKATLTADTSSSTAYMSLSSLTSEDSAIYYCTSRNFAYWGQGTLVTVSA VL: DIVMTQSQKFMSTSVGDRVSVTCKASQNVGTNVAWYQQKPGQSPKALIYSASYRYSGVPDRFTGSGSGTDFTLTISNVQSEDLAEYFCQQYNSYPYTFGGGTKLEIK | 0.116
3 | AH04518 (human IgG1 reformatted) (antibody, V domains shown, also called AH4518) VH: QVQLQQSGAELVRPGTSVKMSCKAAGYTFTNYWIGWVKQRPGHDLEWIGDIHPGGDYSNYNEKFKGKATLTADTSSSTAYMNLSSLTSEDSAIYYCTSRNFAYWGQGTLVTVSA VL: DILLTQSQKFMSTSVGDRVSVTCKASQNVGTNVAWYQQKPGQSPKALIYSASYRYSGVPDRFTGSGSGTDFTLTISNVQSEDLAEYFCQQYNSYPYTFGGGTKLEIK | 0.114
4 | AH04527 (human IgG1 reformatted) (antibody, V domains shown) VH: QVQLQQSGAELVRPGTSVKMSCKAAGYTFTNYWIGWVKQRPGHGLEWIGDIHPGGGYIDYNEKFTGKATLTADTSSSTAYMQLSSLTSEDSAIYYCVSRNFAKWGQGTLVTVSA VL: DVVMTQSQKFMSTSVGDRVSVTCKASQNVGTNVAWYQQKPGQSPKALIYSASYRYSGVPDRFTGSGSGTDFTLTISNVQSEDLAEYFCQQYNSYPYTFGGGTKLEIK | 0.0959
5 | AH04523 (human IgG1 reformatted) (antibody, V domains shown, also called AH4523) VH: QIQLQQSGAELVRPGTSVKMSCKAAGYTFTNYWIGWVKQRPGHGLEWIGDIHPGGSYTNYNENFKGKATFTADTSSSTTYMQLSSLTSEDSAIYFCTSRNFAKWGQGTPVTVSS VL: DIVLTQSQKFMSTSVGDRVSVTCKASQNVGTNVAWYQQKPGQSPKALIYSASYRYSGVPDRFTGSGSGTDFTLTISNVQSEDLAEYFCQQYNSYPYTFGGGTKLEIK | 0.108
6 | D17 (human IgG1 reformatted) (antibody, V domains shown) VH: QIQLQQSGAELVRPGTSVKISCKASGYTFTNYWLGWVKQRPGHGLEWIGDIYPGGGYTNYNEKFKGKATLTADTSSSTAYMQLSSLTSEDSAVYFCARVTPASWGQGTTLTVSA VL: DILLTQSQKFMSTSVGDRVSVTCKASQNVGTNVAWYQQKPGQSPKALIYSASYRYSGVPDRFTGSGSGTDFTLTISNVQSEDLAEYFCQQYNSYPLTFGGGTKLEIK | 0.0957
7 | AH04526 (human IgG1 reformatted) (antibody, V domains shown) VH: QVQLQQSGAELVRPGTSVKMSCKAAGYTFTNYWIGWVKQRPGHGLEWIGDIHPGGDYSNYNEKFKGKATLTADTSSSTAYMNLSSLTSEDSAIYYCTSRNFAYWGQGTPVTVSS VL: DTTVTQSQKFMSTSVGDRVSVTCKASQNVGTNVAWYQQKPGQSPKALIYSASYRYSGVPDRFTGSGSGTDFTLTISNVQSEDLAEYFCQQYNSYPYTFGGGTKLEMK | 0.164
8 | AH04505 (human IgG1 reformatted) (antibody, V domains shown, also called AH4505) VH: DVQLQQSGAELVRPGTSVKMSCKAAGYTFTNYWIGWVKQRPGHGLEWIGDIHPGGGYTNYNEKFKGKATLTADTSSSTAYMQLSSLTSEGSAIYYCTSRNFAYWGQGTLVTVSA VL: DTTVTQSQKFMSTSVGDRVSVTCKASQNVGTNVAWYQQKPGQSPKALIYSASYRYSGVPDRFTGSGSGTDFTLTISNVQSEDLAEYFCQQYNSYPYTFGGGTKLEMK | 0.106
9 | AH05274 (human IgG1 reformatted) (antibody, V domains shown) VH: QVQLQQSGAELVRPGTSVKISCKASGYTFTNYWLGWIKQRPGHGLEWIGDIYPGGGYTNYNEKFKGKATLTADTSSSTAYMQLSSLTSEDSAVYFCARVTPASWGQGTSLTVSS VL: DIQMTQSQKFMSTSVGDRVSVTCKASQNVGTNVAWYQQKPGQSPKALIYSASYRYSGVPDRFTGSGSGTDFTLTISNVQSEDLAEYFCQQYNSYPYTFGGGTKLEIK | 0.228
10 | AH04525 (human IgG1 reformatted) (antibody, V domains shown, also called AH4525) VH: QVQLQQSGAELVRPGTSVKMSCKAAGYTFTNYWIGWIKQRPGHGLEWIGDIHPGGDYTNYNEKFKGKATLTADTFSSTAYMQLSSLTSEDSAIYYCTGRNFAYWGQGTLVTVSS VL: DNVLTQSQKFMSTSVGDRVSVTCKASQNVGTNVAWYQQKPGQSPKALIYSASYRYSGVPDRFTGSGSGTDFTLTISNVQSEDLAEYFCQQYNSYPYTFGGGTKLEMK | 0.109
11 | AH04511 (human IgG1 reformatted) (antibody, V domains shown, also called AH4511) VH: QIQLQQSGAELVRPGTSVKMSCKAAGYTFSNYWIGWVKQRPGHGLEWIGDIHPGGGYINYNEKFTGKATLTADTSSSTAYMQLSSLTSEDSAIYYCVSRNFANWGQGTLVTVSA VL: DIVMSQSQKFMSTSVGDRVSVTCKASQNVGTNVAWYQQKPGQSPKALIYSASYRYSGVPDRFTGSGSGTDFTLTISNVQSEDLAEYFCQQYNSYPYTFGGGTKLEIK | 0.108
12 | AH04501 (human IgG1 reformatted) (antibody, V domains shown, also called AH4501) VH: QVQLQQPGAELVRPGTSVKMSCKAAGYTFTNYWIGWVKQRPGHGLEWIGDIHPGGDYSNYNEKFKGKATLTADTSSSTAYMNLSSLTSEDSAIYYCTSRNFAYWGQGTLVTVSA VL: DVVMTQTQKFTSTSVGDRVSVTCKASQNVGTNVAWYQQKPGQSPKALIYSASYRYSGVPDRFTGSGSGTDFTLTISNVQSEDLAEYFCQQYNSYPYTFGGGTKLEIK | 0.159
13 | AH04502 (human IgG1 reformatted) (antibody, V domains shown, also called AH4502) VH: QIQLQQSGAELVRPGTSVKMSCKAAGYTFTNYWIGWVKQRPGHGLEWIGDIHPGGGYTNYNEKFKGKATLTADTSSSTADMQLSSLTSEDSAIYYCTSRNFAYWGQGTLVTVSA VL: DIVMTQSQKFMSTSVGDRVSVTCKASQNVGINVAWYQQKPGQSPKALIYSASYRYSGVPDRFTGSGSGTDFTLTISNVQSEDLAEYFCQQYNSYPYTFGGGTKLEIK | 0.109
14 | AH04503 (human IgG1 reformatted) (antibody, V domains shown, also called AH4503) VH: QVQLQQPGAELVRPGTSVKMSCKAAGYTFSNYWIGWVKQRPGHGLEWIGDIHPGGGYINYNEKFTGKATLTADTSSSTAYMQLSSLTSEDSAIYYCVSRNFANWGQGTLVTVSA VL: DIQMTQSQKFMSTSVGDRVSVTCKASQNVGTNVAWYQQKPGQSPKALIYSASYRYSGVPDRFTGSGSGTDFTLTISNVQSEDLAEYFCQQYNSYPWTFGGGTKLEIK | 0.145
15 | BP003-T2P1C4 (human IgG1 reformatted) (antibody, V domains shown) VH: QVQLQQSGAELVRPGTSVKISCKASGYTFTNYWLGWVKQRPGHGLEWIGDIYPGGGYTNYNEKFKGKATLTADTSSSTAYMQLSSLTSEDSAVYFCARVTPASWGQGTTVTVSS VL: DIQMTQSQKFMSASVGDRVSVTCKASQNVGTNVAWYQQKPGQSPKALIYSASYRYSGVPDRFTGSGSGTDFTLTISNVQSEDLAEYFCQQYNSYPYTFGGGTKLEMK | 0.294
16 | AH04522 (human IgG1 reformatted) (antibody, V domains shown) VH: QIQLQQSGAELVRPGTSVKMSCKAAGYTFTNYWIGWVKQRPGHGLEWIGDIHPGGGYTNYNEKFKGKATLTADTSSSTAYMQLSSLTSEDSAIYYCTSRNFAYWGQGTLVTVSA VL: DTTVTQSQKFMSTSVGDRVSVTCKAGQNVGTNVAWYQQKPGQSPKALIYSASYRYSGVPDRFTGSGSGTDFTLTISNVQSEDLAEYFCQQYNSYPYTFGGGTKLEIK | 0.11
17 | AH04507 (human IgG1 reformatted) (antibody, V domains shown) VH: QVQLQQSGAELVRPGTSVKMSCKAAGYTFTNYWIGWVKQRPGHGLEWIGDIHPGGGYIDYNEKFTGKATLTADTSSSTAYMQLSSLTSEDSAIYYCVSRNFAKWGQGTLVTVSA VL: DTTVTQSQKFMSTSVGDRVSVTCKASQNVGTNVAWYQQKPGQSPKALIYSASYRYSGVPDRFTGSGSGTDFTLTISNVQSEDLAEYFCQQYNSYPYTFGGGTKLEIK | 0.089
18 | BP003-T2P1D10 (human IgG1 reformatted) (antibody, V domains shown) VH: QIQLQQPGAELVRPGTSVKISCKASGYTFTNYWLGWVKQRPGHGLEWIGDIYPGGGYTNYNEKFKGKATLTADTSSSTAYMQLSSLTSEDSAVYFCARVTPASWGQGTSLTVSS VL: DIVITQSQKFMSTSVGDRVSVTCKASQNVGTNVAWYQQKPGQSPKALIYSASYRYSGVPDRLTGSGSGTDFTLTISNVQSEDLAEYFCQQYNRYPYTFGGGTKLEIK | 0.165
19 | AH05256 (human IgG1 reformatted) (antibody, V domains shown) VH: QVQLQQPGAELAKPGASVKMSCKASGYTFTRYWIHWVKQRPGQDLEWIGYINPRTDYTEYNQKFKDKATLTADKSSSTAYMQLSSLTSDDSAVYYCARHGYFDYWGQGTTLTVSS VL: DIQMTQTTSSLSASLGDRVTISCRASQDISNYLNWYQQKPDGTVKLLIYHTSRLQSGVPSRFTGSGSGTDYSLTISNLEQEDIATYFCQQSNSLPPTFGGGTKLEIK | 0.0715
20 | AH05259 (human IgG1 reformatted) (antibody, V domains shown) VH: QVQLQQSGAELVRPGVSVKISCKGSGYTFTDYAMHWVKQSHAKSLEWIGVISTYSGDVSYNQKFKGKATMTVDKSSSTAYMELARLTSEDSAIYYCARGVTFDSWGQGTSLTVSS VL: DIQMTQTPASLSASVGETVTITCRASENIYSFLEWFQQKQGKSPQLLVYNAKTLAEGVPSRFSVSGSGTQFSLKINSLQPEDFGSYYCQHHYGIPYTFGGGTKLEIK | 0.121
21 | D36 (human IgG1 reformatted) (antibody, V domains shown) VH: QVQLQQPGAELVRPGVSLKISCKGSGYTFTDYAMHWVRQSHAKSLEWIGVISTYSGDALYNQKFKGKATMTVDKSSSTAYLELARLTSEDSAIYYCARGVTFDYWGQGTTLTVSS VL: DVVMTQSPASLSASVGETVTITCRASENSYSYLEWYQQKQGKSPQLLVYNAKTLAEGVPSRFSGSGSGTQFSLKINSLQPEDFGTYYCQHHYGTPYTFGGGTKLEMK | 1.49
